# Data reported in US20230193513A1 (published 2023).
# T1: flag-GLP1R-GFP expressed on CHO cells (UniProt P43220 24-463)
# T1 chain: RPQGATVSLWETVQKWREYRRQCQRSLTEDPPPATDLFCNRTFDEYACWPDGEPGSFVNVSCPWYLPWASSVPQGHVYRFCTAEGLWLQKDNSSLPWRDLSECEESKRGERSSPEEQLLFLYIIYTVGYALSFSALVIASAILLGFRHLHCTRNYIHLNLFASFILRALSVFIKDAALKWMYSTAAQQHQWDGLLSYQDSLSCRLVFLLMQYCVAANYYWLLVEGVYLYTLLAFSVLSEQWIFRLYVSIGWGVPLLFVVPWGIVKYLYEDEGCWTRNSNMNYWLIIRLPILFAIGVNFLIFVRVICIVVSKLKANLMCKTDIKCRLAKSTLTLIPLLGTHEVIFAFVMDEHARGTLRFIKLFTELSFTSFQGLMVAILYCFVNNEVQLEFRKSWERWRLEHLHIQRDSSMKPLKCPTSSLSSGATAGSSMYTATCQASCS
# Biological target: T1, flag-GLP1R-GFP expressed on CHO cells
# Test: FACS cell binding
binder,measurement,value
GLP1R-242 (antibody) heavy: QVQLVQSGAEVKKPGSSVKVSCKASGGTFSSYEISWVRQAPGQGLEWMGGIIPILGIANYAQKFQGRVTITADESTSTAYMELSSLRSEDTAVYYCAKHMSMQADTGTFTSDVSSYLEGQAAKEFIAWLVKGEFSSRADLVGDAFDVWGQGTLVTVSSASASTKGPSVFPLAPCSRSTSESTAALGCLVKDYFPEPVTVSWNSGALTSGVHTFPAVLQSSGLYSLSSVVTVPSSNFGTQTYTCNVDHKPSNTKVDKTVERKCCVECPPCPAPPVAGPSVFLFPPKPKDTLMISRTPEVTCVVVDVSHEDPEVQFNWYVDGVEVHNAKTKPREEQFNSTFRVVSVLTVVHQDWLNGKEYKCKVSNKGLPAPIEKTISKTKGQPREPQVYTLPPSREEMTKNQVSLTCLVKGFYPSDIAVEWESNGQPENNYKTTPPMLDSDGSFFLYSKLTVDKSRWQQGNVFSCSVMHEALHNHYTQKSLSLSPG light: QSVLTQPPSVSAAPGQKVTISCSGSSSNIENNDVSWYQQLPGTAPKLLIYGNDQRPSGIPDRFSGSKSGTSATLGITGLQTGDEADYYCGTWDNTLSAGVFGGGTKLTVLGQPKAAPSVTLFPPSSEELQANKATLVCLISDFYPGAVTVAWKADSSPVKAGVETTTPSKQSNNKYAASSYLSLTPEQWKSHRSYSCQVTHEGSTVEKTVAPTECS,EC50,27.7 nM
